Data on 5 molecules can be found in patent US6087121A, “Chemiluminescent detection of heme proteins in biological samples” (Mayo Foundation for Medical Education and Research, priority 1999, dated 2000).

Data set [1] concerns Hb. The experiment in a line: S/N ratios of different chemiluminescent substrates with Hb. The class given is biochemical, human. How it is done: (§1) Centricon ultrafiltration filters were obtained from Amicon (Daven, Mass.). Polystyrene tubes (5.0 mL volume, 75×12 mm) used for the assay were manufactured by Sarstedt (Arlington Heights, Ill.). The chemiluminescent substrate, 7-dimethylamino-naphthalene-1,2-dicarbonic acid-hydrazide (7-DNH) was purchased from Boehringer Mannheim (Indianapolis, Ind.). PS-1 acridan substrate (solution A and solution B) was obtained from Lumigen Inc. (Southfield, Mich.). […] Tween-20 and Sodium Chloride were purchased from Fisher Scientific (Fair Lawn, N.J.). General laboratory chemicals such as, boric acid, sodium acetate, Trizma base, HEPES, hydrogen peroxide (H2 O2) solution (30.0%), human hemoglobin, catalase, 6-amino-2,3-dihydro-1,4-phthallazinedione (4-aminophthalhydrazide), N-(4-Aminobutyl)-N-ethyl-isoluminol, Triton X-100, (3-[3-cholamidopropyl)dimethylammonio]-1-propanesulfonate) (CHAPS), hydrogen disulfite, methimazole, ofloxacin, ascorbic acid, ammonium chloride, EDTA, Hb, bilirubin, and lactoperoxidase (LPO) were purchased from Sigma Chemical Company (St. Louis, Mo.). Human heart myoglobin and myeloperoxidase were obtained from Calbiochem (La Jolla, Calif.) Thyroid peroxidase (TPO) was purchased from O.E.M. Concepts, Inc. (Toms River, N.J.). Eosinophil peroxidase was provided by Dr. Greipp (Mayo Clinic). Fresh EDTA anticoagulated blood was collected from donors showing no signs of sickness and washed with physiological saline to isolate RBC.
(§2) Fresh urine specimens were obtained in routine commercial collection vessels. The specimens were, either, analyzed immediately or stored at 4° C. until analysis. The urine samples were prepared for analysis by adding CTAC to produce a 0.1% solution, unless otherwise noted, in order to lyse the erythrocytes, thereby releasing hemoglobin. The assays were performed in a 75×12 mm polystyrene tube. The assay solutions were prepared by adding to each tube 294 μL of high ionic strength buffer, 5.0 μL of the prepared urine samples or standards, and […] of substrate (0.4 mM solution of 7-DNH), unless otherwise noted. […] The standard curve was obtained by plotting chemiluminescence emission in Relative Light Units (RLU) versus Hb concentration (μg/mL) or number of RBCs (#RBC/high power field (hpf)). Cell counts were determined with the Yellow Iris® instrument and confirmed by a manual hemocytometer count.
(§3) The substrate (7-DNH) and the ultrafiltered urine were prepared as described above. The kinetics of chemiluminescence was determined by monitoring the chemiluminescence signal over a 20 second time period following addition of the substrate (7-DNH) to ultrafiltered urine. Measurements were performed either in the presence or absence of Hb. Experiments performed in the absence of Hb provide background measurements in relative light units (RLU).

A further data set concerns Mb. In words: S/N ratios of different chemiluminescent substrates with Mb. Particulars: signal integrated over first five seconds. The class given is biochemical, human. As to the method:
as §1, §2
The substrate (7-DNH) and the ultrafiltered urine were prepared as described above. The kinetics of chemiluminescence was determined by monitoring the chemiluminescence signal over a 20 second time period following addition of the substrate (7-DNH) to ultrafiltered urine. Measurements were performed either in the presence or absence of Hb. […]

Data set [2] has as its system Hb. In words: Chemiluminescence emission kinetics of 7-DNH with Hb. The class given is biochemical, human. Particulars: Hb in ultrafiltered urine, after H2O2. As to the method:
as §3

For a further data set, the system named is leukocytes. In words: Stability of leukocytes in urine with ofloxacin. The class given is cell-based. The conditions noted are these: 100 μg/ml ofloxacin, 4° C. How it is done: (§4) Intra- and inter-assay imprecision was performed for MPO standards, WBC standards and 3 urine samples. Intra- and inter-assay imprecision tests were performed as described for the Hb assay in Example 7. The effect of time on the stability of enzyme activity in the leukocytes was examined. The effect of adding a quinoline antimicrobial agent, ofloxacin, was also studied with respect to its stabilization of the leukocytes.
Stability of leukocytes in the urine over time was improved by storing the urine samples at 4° C. The addition of 100 μg/ml of ofloxacin kept the leukocytes intact up to 20 hours later when the urines were maintained at 4° C. (FIG. 14).

In data set [3] the target is T1, MPO (Homo sapiens, UniProt P05164).
T1 sequence (P05164 49-745): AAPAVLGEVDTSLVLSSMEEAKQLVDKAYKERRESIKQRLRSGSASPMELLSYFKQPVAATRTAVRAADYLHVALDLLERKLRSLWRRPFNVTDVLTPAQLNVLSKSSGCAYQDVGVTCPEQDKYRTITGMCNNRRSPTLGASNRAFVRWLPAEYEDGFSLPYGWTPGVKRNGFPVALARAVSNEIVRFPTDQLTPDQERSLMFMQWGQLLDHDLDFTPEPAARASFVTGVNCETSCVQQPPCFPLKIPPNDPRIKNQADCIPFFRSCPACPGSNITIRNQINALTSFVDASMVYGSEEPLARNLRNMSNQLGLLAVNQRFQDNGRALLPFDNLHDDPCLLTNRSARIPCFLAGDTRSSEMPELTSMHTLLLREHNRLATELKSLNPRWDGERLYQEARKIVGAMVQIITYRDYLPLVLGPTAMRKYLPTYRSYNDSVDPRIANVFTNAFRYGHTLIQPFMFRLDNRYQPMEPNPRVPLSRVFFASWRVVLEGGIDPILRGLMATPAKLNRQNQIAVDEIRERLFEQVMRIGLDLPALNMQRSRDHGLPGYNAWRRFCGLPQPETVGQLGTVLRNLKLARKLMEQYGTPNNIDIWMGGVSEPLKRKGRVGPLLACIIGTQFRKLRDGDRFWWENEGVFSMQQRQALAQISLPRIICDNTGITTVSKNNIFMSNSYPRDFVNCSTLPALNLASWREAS
The experiment in a line: Effects of potential interfering substances in WBC (MPO, PS-1) assay. The class given is biochemical. Particulars: level giving signal equal to 5 WBC/high power field; highest tested: hemoglobin 250, myoglobin 200 μg/mL. How it is done:
(§5) Urine samples were diluted 1:4 into distilled water to minimize inhibitory effects observed with hyperosmolal urines. Two μL of diluted urine were added to 12×75 mm polystyrene test tube containing 50 μL of the PS-1 solution. The tubes were incubated at 37° C. for 5 minutes. MPO activity was determined by chemiluminescence emission using a Turner TD-20e luminometer maintained at 37° C. Leukocyte counting was performed manually by using a hemacytometer chamber (Kova Glasstic slide, Hycor, Irvine, Calif.) on each urine sample to determine the number of cells/mL.
Several possible interfering substances were added to urine and tested for inhibitory effects. Several common medications were also tested for potential inhibitory effects. […] Hb at concentrations of >10 μg/mL and Mb at concentrations >2 μg/mL were detected by the PS-1 substrate as the chemiluminescence emission was above the normal urine background. Samples grossly populated with bacteria caused slight inhibition of the MPO activity. Urine samples may contain many epithelial cells, casts, crystals, and numerous artifacts but none of these appear to interfere with the chemiluminescence emission from MPO.

The test system of data set [4] is Hb. In words: Performance characteristics of Hb assay (precision, linearity, recovery, stability). The arrangement: species or system human. Particulars: with detergent and substrate. How it is done:
Ultrafiltered urine was prepared from a pool of fresh urine specimens by ultrafiltration through Centriprep-10 at 3,000×g in a Beckman J2-HC centrifuge (Beckman Instruments, Calif.). This treatment separates all biomolecules with molecular weight greater than 10,000 daltons so that the ultrafiltered urine is devoid of Hemoglobin (Hb) and Myoglobin (Mb). Stock standards were prepared with the ultrafiltrate containing known quantities of, either purified Hb or washed, packed RBCS. A cell count of the stock RBC standard was determined by the Yellow IRIS® Automated Imaging System (Independent Research Imaging Systems, Chatsworth, Calif.). Cells in urine are imaged under laminar flow conditions. Up to 80 images of cells are captured using a high speed charged-coupled device camera. Cell images are then identified and quantified. […] All chemiluminescence measurements were determined using a Berthold AutoLumat, LB 953 (EG&G Berthold, Aliquippa, Pa.).
Fresh urine specimens were obtained in routine commercial collection vessels. The specimens were, either, analyzed immediately or stored at 4° C. until analysis. […] The emission of light was measured over five seconds following automatic injection of 300 μL of 5% hydrogen peroxide (pH 3.25). […] Cell counts were determined with the Yellow Iris® instrument and confirmed by a manual hemocytometer count. […]

Data set [5] addresses T1, MPO. The experiment in a line: Effects of potential interfering substances in WBC (MPO, PS-1) assay. The class given is biochemical. The conditions noted are these: Hb <10 μg/mL.
The next data set deals with RBC. In words: Effectiveness of lysing agents in RBC assay. It counts as cell-based, human. The conditions noted are these: saponin 0.2 mg/mL, 30 second time period; mellitin 0.85 mg/mL; CTAC 0.1%. How it is done: as §2
Data set [6] deals with Hb. In words: Interference studies in Hb assay (7-DNH chemiluminescence). It counts as biochemical, human. How it is done: Numerous potential interfering substances, which either enhance or quench the signal generated by cyclic hydrazides, were evaluated. The effects of these potentially interfering substances on light emission was investigated at varying concentrations of the interfering composition. Assays were performed using serial dilutions of the potential interfering compositions in ultrafiltered urine at a fixed concentration of Hb. Comparisons of chemiluminescence emission were made between a reference solution (Hb in ultrafiltered urine) without added interfering compositions and solutions with added interferant.
Generally, the value of 3 RBC per high power field is the normal cutoff point.
Bilirubin and uric acid were examined as a possible negative interfering compositions because of their chemical structure which may quench energy emitted.

Data set [7] addresses T1, MPO. The experiment in a line: Performance characteristics of WBC assay, MPO standard. The conditions noted are these: listed as MPO. As to the method:
as §5, §4

The test system of data set [8] is MPO. The experiment in a line: Effect of temperature/time on chemiluminescence emission from MPO with PS-1. It counts as biochemical. How it is done: as §5
The kinetics of chemiluminescence emission from MPO at 37° C. was followed over time using several urine samples diluted 4-fold in water (FIG. 11). […] Assays in Examples 10-16 were performed at 37° C., and chemiluminescence emission determined at 5 minutes.

Several values for one entry are separate records, joined by “and”; a condition that tells them apart may be missing. Equal values may be shown once. A value given as a limit tells only on which side of the number the result lay.

As to `CN(C)c1ccc2ccc3c(=O)[nH][nH]c(=O)c3c2c1` [7-DNH, 7-dimethylamino-naphthalene-1,2-dicarbonic acid-hydrazide], the “sensitivity compared to other substrates tested” value with Hb [1] (by signal to noise ratio) is on record as “most sensitive”. Besides, in the data set with Hb [1] (signal integrated over first five seconds), the “S/N for Hb” value is given as 589. Further, the “S/N for Mb” value in the data set with Mb is on record as 316. For the same molecule, in the data set with Hb [2], the “time of peak emission” value is 2 s.

Take `CC1COc2c(N3CCN(C)CC3)c(F)cc3c(=O)c(C(=O)O)cn1c23` (stereo not drawn) [ofloxacin]: the “leukocytes kept intact in urine” value in the data set with leukocytes was “up to 20 hours”.

As for “Hemoglobin: human hemoglobin purchased from Sigma”, the Interference with MPO [3] was more than 10 µg/mL. Also, the “stability of Hb in the samples during the reaction” value with Hb [4] was “up to 25 minutes”. For the same molecule, the “interference with PS-1 assay” value with MPO [5] is listed as “did not interfere”.

Regarding Mellitin: lysing agent, the “effectiveness as lysing agent” value in the data set with RBC is given as “nearly as effective as 0.1% CTAC”.

B1: Myeloperoxidase: myeloperoxidase obtained from Calbiochem (protein, UniProt P05164 165-745, looked up)
Myeloperoxidase: VTCPEQDKYRTITGMCNNRRSPTLGASNRAFVRWLPAEYEDGFSLPYGWTPGVKRNGFPVALARAVSNEIVRFPTDQLTPDQERSLMFMQWGQLLDHDLDFTPEPAARASFVTGVNCETSCVQQPPCFPLKIPPNDPRIKNQADCIPFFRSCPACPGSNITIRNQINALTSFVDASMVYGSEEPLARNLRNMSNQLGLLAVNQRFQDNGRALLPFDNLHDDPCLLTNRSARIPCFLAGDTRSSEMPELTSMHTLLLREHNRLATELKSLNPRWDGERLYQEARKIVGAMVQIITYRDYLPLVLGPTAMRKYLPTYRSYNDSVDPRIANVFTNAFRYGHTLIQPFMFRLDNRYQPMEPNPRVPLSRVFFASWRVVLEGGIDPILRGLMATPAKLNRQNQIAVDEIRERLFEQVMRIGLDLPALNMQRSRDHGLPGYNAWRRFCGLPQPETVGQLGTVLRNLKLARKLMEQYGTPNNIDIWMGGVSEPLKRKGRVGPLLACIIGTQFRKLRDGDRFWWENEGVFSMQQRQALAQISLPRIICDNTGITTVSKNNIFMSNSYPRDFVNCSTLPALNLASWREAS
With B1, the “Level of Interference (in words)” value with Hb [6] (highest conc: ascorbic acid 10, bilirubin 10, Cu++/Mn++ 40, sodium azide 500 μg/mL, uric acid 1 mg/mL) is given as “only interfere at very high concentrations”. Also, the “Level of Interference” value with Hb [6] (level producing a signal equivalent to 3 RBC per high power field, fixed Hb concentration) was more than 6.2 µg/mL. The “CV%, MPO Standard” value with MPO [7] (Table 10, intra-assay precision, 0.01% Triton incorporated) is 2.05% and 3.56% and 4.33% and 4.63%; with MPO [7] (Table 11, 0.01% Triton incorporated), 6.36% and 8.39% and 8.26% and 5.50%. In addition, in the data set on MPO [8] (37° C., between 3 and 20 minutes), the “change in RLU (constant chemiluminescence emission)” value is “less than 5%”. In addition, the “time of maximum light emission” value with MPO [8] (room temperature) amounted to 15 min.
